Test results from patent US20150203579A1 (Regeneron, published 2015).
Read-outs that look alike come from different tables or passages of the source.

What was measured:
[1] = target: T1, dimeric biotinylated human PD-1 protein with a C-terminal human Fc tag (human, biotinylated (sites not given)); assay: competition ELISA: 200 pM biot-hPD-1-hFc to coated hPD-L1-mFc; * below theoretical bottom 1.0E-10 M
T1 construct: also called biot-hPD-1-hFc

[2] = target: T2, recombinant human PD-1 dimer expressed with a C-terminal mouse IgG2a Fc tag (human); assay: competition ELISA: 1.5 nM hPD-1-mFc to coated hPD-L1-hFc
T2 construct: also called hPD-1-mFc

[3] = target: T3, full length human PD-1 on HEK293/hPD-1 cells (human, UniProt Q15116 25-288); assay: FACS, 100 nM mAb
[4] = target: PD-1 chimera: extracellular domain of human PD-1 with trans-membrane and cytoplasmic domains of human CD300a, … (human, UniProt Q9UGN4 181-299, limits assumed); assay: cell-based or functional assay
[5] = target: T3, full length human PD-1 on HEK293/hPD-1 …; assay: FACS, 100 nM mAb, HEK293/hPD-1 cells;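 note: antibodies incubated with cells for 15-30 min on ice, bound antibody detected through a secondary F(ab′)2 by flow cytometry, with parental HEK293 cells tested in parallel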
[6] = target: T2, recombinant human PD-1 dimer expressed …; assay: competition ELISA: 1.5 nM hPD-1-mFc to coated hPD-L1-hFc; * below theoretical bottom 7.5E-10 M
[7] = target: T3, full length human PD-1 on HEK293/hPD-1 …; assay: FACS dose response, HEK293/hPD-1 cells
[8] = target: T2, recombinant human PD-1 dimer expressed …; assay: BLI Octet: 100 nM hPD-1-mFc + 500 nM mAb to captured hPD-L1-hFc
[9] = target: T1, dimeric biotinylated human PD-1 protein …; assay: competition ELISA: 200 pM biot-hPD-1-hFc to coated hPD-L1-mFc
[10] = target: T3, full length human PD-1 on HEK293/hPD-1 …; assay: FACS dose response, HEK293/hPD-1 cells; remark: listed apart in the source

| Binder | IC50 [1] | % blocking at 200 nM antibody [2] | ratio of MFI HEK293/hPD-1 to HEK293 parental cells [3] | Concentration (M) of Antibody at 150% activation [4] | Emax mean [%] @ 100 nM [4] | MFI [5] | IC50 [6] | EC50 [7] | Max Geom. Mean MFI @ 100 nM [7] | % Blocking [8] | binding of the mixture (nm) [8] | % blocking at 50 nM antibody [9] | EC50 [10] | Max Geom. Mean MFI @ 100 nM [10] | IC50 [9] |
| --- | --- | --- | --- | --- | --- | --- | --- | --- | --- | --- | --- | --- | --- | --- | --- |
| H2aM7780N (antibody, V domains shown, human variable regions, mouse IgG2a Fc; also called H2M7780N) VH: QVQLVESGGGVVQSGRSLRLSCAASGFTFSSYGMHWVRQAPGKGLEWVAVIWYDGSNIYYSDSVKGRFTISRANSKNTLYLQMNSLRAEDTAVYYCARPGHWNYFFEYWGQGTLVTVSS VL: DIQMTQSPSSLSASVGDRVTITCRASQSINNYLNWYQQKPGKAPKLLIYTASSLQSGVPSRFSGSGSGTDFTLTISSLQPEDFATYYCQQSYSTPPLTFGQGTQLEIK | 0.091 nM | 94% | 73.8 | 6.52e-09 M | 228% | 23700 MFI | 0.69 nM | 1.69 nM | 18400 MFI | 114% | -0.01 nm | 100% | – | – | – |
| H2aM7796N (antibody, V domains shown, human variable regions, mouse IgG2a Fc; also called H2M7796N) VH: QVQLVESGGGVVQPGRSLRLSCAASGFTFSSYGMHWVRQAPGKGLEWVAIIWSDGDSEYNLDSVKGRFTISRDNSKNTLYLQMNSLRVEDSAVYYCARDRDLEDIWGQGTMVTVSS VL: DIQMTQSPSSLSASVGDRVTITCRASQGIRNDLGWYQQKPGKAPKRLIYAASNLQSGVPSRFSGSGSGTEFTLTISSLQPEDFATYYCLQHNSYPLTFGGGTKVEIK | – | – | 168 | – | 121% | 49800 MFI | – | – | – | 129% | -0.02 nm | 60% | 4.81 nM | 14100 MFI | 1.3 nM |

Further binders by falling IC50 [1], results first:

| IC50 [1] | % blocking at 200 nM antibody [2] | ratio of MFI HEK293/hPD-1 to HEK293 parental cells [3] | Concentration (M) of Antibody at 150% activation [4] | Emax mean [%] @ 100 nM [4] | MFI [5] | IC50 [6] | EC50 [7] | Max Geom. Mean MFI @ 100 nM [7] | % Blocking [8] | binding of the mixture (nm) [8] | % blocking at 50 nM antibody [9] | EC50 [10] | Max Geom. Mean MFI @ 100 nM [10] | IC50 [9] | Binder |
| --- | --- | --- | --- | --- | --- | --- | --- | --- | --- | --- | --- | --- | --- | --- | --- |
| 0.065 nM | 83% | 24.7 | 1.65e-08 M | 182% | 6810 MFI | 0.6 nM | 0.048 nM | 20800 MFI | 100% | 0 nm | 99% | – | – | – | H1M7800N (antibody, V domains shown, human variable regions, mouse IgG1 Fc) VH: EVQLVESGGGLVQPGGSLRLSCAASGFTVSNNYMSWVRQAPGKGLEWVSVIYSGGFTYYTDSVKGRFTISRHNSKNTLYLQMNSLRAEDTAVYYCARYYYDTSDYWTFFDYWGQGTLVTVSS VL: EIVMTQSPATLSVSPGERATLSCRASQSVSSNLAWYQQKPGQAPRLLIYGASTRATGIPARFSGSGSGTEFTLTISSLQSGDFAVYYCQQYNNWPLTFGGGTKVEIN |
| 0.065 nM | 74% | 75.7 | 4.72e-09 M | 189% | 23100 MFI | 0.22 nM | 0.321 nM | 14800 MFI | 100% | 0 nm | 100% | – | – | – | H2aM7788N (antibody, V domains shown, human variable regions, mouse IgG2a Fc; also called H2M7788N) VH: EVQLVESGGGLVQPGGSLRLSCGASGFTFRNYDMHWVRQITGKGLEWVSAIGSAGDTYYPDSVKGRFTISRENAKNSLYLQMNSLRVGDTAVYYCTRDIHCSSTRCYGMDVWGQGTTVTVSS VL: not shown |
